Patent publication US20150218261A1

Assays:
[1] = target: Aβ(1-42) globulomer (human); test: dot blot, antigen dilution series on nitrocellulose, antibody 0.2 µg/ml, densitometry
Aβ(1-42) fibril (human) = test: as above
sAPPα = sAPPα (UniProt P05067); test: dot blot, antigen dilution series on nitrocellulose (first dot 1 pmol), antibody 0.2 µg/ml, densitometry

Chain of Aβ(1-42) fibril (human) (peptide, as listed by the source): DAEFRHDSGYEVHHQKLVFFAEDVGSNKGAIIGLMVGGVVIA
Chain of Aβ(1-42) globulomer (human) (peptide, as listed by the source): as above

dot blot quantification (relation between recognition of Aβ(20-42) globulomer and the respective Aβ form) [1]: > 10000
dot blot quantification (relation between recognition of Aβ(20-42) globulomer and the respective Aβ form) (Aβ(1-42) fibril (human)): > 10000
dot blot quantification (relation between recognition of Aβ(20-42) globulomer and the respective Aβ form) (sAPPα): > 100
B1: humanized monoclonal anti-Aβ antibody 4D10hum#1 (antibody, human IgG1, kappa, V domains shown)
VH: EVQLVESGGGLVQPGGSLRLSCAVSGFTLSSYGVHWVRQAPGKGLEWLGVIWRGGRIDYNAAFMSRLTISKDNSKSTVYLQMNSLRAEDTAVYYCARNSDVWGQGTTVTVSS
VL: DVVMTQTPLSLPVTPGQPASISCKSSQSLLDIDGKTYLNWLLQKPGQSPQRLIYLVSKLDSGVPDRFSGSGSGTDFTLKISRVEAEDVGVYYCWQGTHFPYTFGQGTKLEIKR
